# Like-named read-outs stand apart in the source and are kept apart here. Where no end group is shown, it is not given here. [ ]: non-standard residue; d: D form. The star is where a group is joined. DOTA = O=C(O)CN1CCN(CC(=O)O)CCN(CC(=O)*)CCN(CC(=O)O)CC1; 4Abz = Nc1ccc(C(=O)O)cc1; Dap = NC[C@H](N)C(=O)O; AEEA = NCCOCCOCC(=O)O; Me2Gly = CN(C)CC(=O)*; Acm = CC(=O)NC*
# B1: DO3A-monoamide-G-Abz4-QWAGHFL-NH2 (peptide)
# peptide: {DOTA}-G[4Abz]QWAGHFL-NH2
# SMILES: CC(C)C[C@H](NC(=O)[C@H](Cc1ccccc1)NC(=O)[C@H](Cc1c[nH]cn1)NC(=O)CNC(=O)[C@H](C)NC(=O)[C@H](Cc1c[nH]c2ccccc12)NC(=O)[C@H](CCC(N)=O)NC(=O)c1ccc(NC(=O)CNC(=O)CN2CCN(CC(=O)O)CCN(CC(=O)O)CCN(CC(=O)O)CC2)cc1)C(N)=O
# notes: also called L224
# B2: N,N-dimethylglycine-Ser-Cys(Acm)-Gly-SS-QWAVGHLM-NH2 (peptide)
# peptide: [Me2Gly]SC(Acm)GSSQWAVGHLM-NH2
# SMILES: CSCC[C@H](NC(=O)[C@H](CC(C)C)NC(=O)[C@H](Cc1c[nH]cn1)NC(=O)CNC(=O)[C@@H](NC(=O)[C@H](C)NC(=O)[C@H](Cc1c[nH]c2ccccc12)NC(=O)[C@H](CCC(N)=O)NC(=O)[C@H](CO)NC(=O)[C@H](CO)NC(=O)CNC(=O)[C@H](CSCNC(C)=O)NC(=O)[C@H](CO)NC(=O)CN(C)C)C(C)C)C(N)=O
# B3: N,N-dimethylglycine-Ser-Cys(Acm)-Gly-KE-QWAVGHLM-NH2 (peptide)
# peptide: [Me2Gly]SC(Acm)GKEQWAVGHLM-NH2
# SMILES: CSCC[C@H](NC(=O)[C@H](CC(C)C)NC(=O)[C@H](Cc1c[nH]cn1)NC(=O)CNC(=O)[C@@H](NC(=O)[C@H](C)NC(=O)[C@H](Cc1c[nH]c2ccccc12)NC(=O)[C@H](CCC(N)=O)NC(=O)[C@H](CCC(=O)O)NC(=O)[C@H](CCCCN)NC(=O)CNC(=O)[C@H](CSCNC(C)=O)NC(=O)[C@H](CO)NC(=O)CN(C)C)C(C)C)C(N)=O
# B4: N,N-dimethylglycine-Ser-Cys(Acm)-Gly-SR-QWAVGHLM-NH2 (peptide)
# peptide: [Me2Gly]SC(Acm)GSRQWAVGHLM-NH2
# SMILES: CSCC[C@H](NC(=O)[C@H](CC(C)C)NC(=O)[C@H](Cc1c[nH]cn1)NC(=O)CNC(=O)[C@@H](NC(=O)[C@H](C)NC(=O)[C@H](Cc1c[nH]c2ccccc12)NC(=O)[C@H](CCC(N)=O)NC(=O)[C@H](CCCNC(=N)N)NC(=O)[C@H](CO)NC(=O)CNC(=O)[C@H](CSCNC(C)=O)NC(=O)[C@H](CO)NC(=O)CN(C)C)C(C)C)C(N)=O
# B5: ^177Lu-L70 (peptide)
# peptide: QWAVGHLM
# modifications: N-terminus: 177Lu complex of DO3A-monoamide-Gly-4-aminobenzoic acid; C-terminal amide
# notes: also called Lutetium complex of L70
# B6: ^175Lu-L70 (peptide)
# peptide: QWAVGHLM
# modifications: N-terminus: 175Lu complex of DO3A-monoamide-Gly-4-aminobenzoic acid; C-terminal amide
# B7: N,N-dimethylglycine-Ser-Cys(Acm)-Gly-8-amino-3,6-dioxaoctanoic acid-Arg-Gly-BBN(7-14) (peptide)
# peptide: RGQWAVGHLM
# modifications: N-terminus: N,N-dimethylglycine-Ser-Cys(Acm)-Gly-8-amino-3,6-dioxaoctanoic acid; C-terminal amide
# notes: same M-N-O-P-G as printed for L22, other MS; also called L57
# B8: N,N-dimethylglycine-Ser-Cys(Acm)-Gly-8-amino-3,6-dioxaoctanoic acid-Arg-BBN(7-14) (peptide)
# peptide: RQWAVGHLM
# modifications: N-terminus: N,N-dimethylglycine-Ser-Cys(Acm)-Gly-8-amino-3,6-dioxaoctanoic acid; C-terminal amide
# notes: also called L9
# B9: N,N-dimethylglycine-Ser-Cys(Acm)-Gly-8-amino-3,6-dioxaoctanoic acid-Lys-BBN(7-14) (peptide)
# peptide: KQWAVGHLM
# modifications: N-terminus: N,N-dimethylglycine-Ser-Cys(Acm)-Gly-8-amino-3,6-dioxaoctanoic acid; C-terminal amide
# notes: also called L8
# B10: N,N-dimethylglycine-Ser-Cys(Acm)-Gly-N-1-piperazineacetic acid-Asp-BBN(7-14) (peptide)
# peptide: DQWAVGHLM
# modifications: N-terminus: N,N-dimethylglycine-Ser-Cys(Acm)-Gly-N-1-piperazineacetic acid; C-terminal amide
# notes: also called L33
# B11: N,N-dimethylglycine-Ser-Cys(Acm)-Gly-N-4-aminoethyl-N-1-piperazineacetic acid-Asp-BBN(7-14) (peptide)
# peptide: DQWAVGHLM
# modifications: N-terminus: N,N-dimethylglycine-Ser-Cys(Acm)-Gly-N-4-aminoethyl-N-1-piperazineacetic acid; C-terminal amide
# notes: also called L27
# B12: N,N-dimethylglycine-Ser-Cys(Acm)-Gly-8-amino-3,6-dioxaoctanoic acid-Glu-BBN(7-14) (peptide)
# peptide: EQWAVGHLM
# modifications: N-terminus: N,N-dimethylglycine-Ser-Cys(Acm)-Gly-8-amino-3,6-dioxaoctanoic acid; C-terminal amide
# notes: also called L13
# B13: N,N-dimethylglycine-Ser-Cys(Acm)-Gly-8-amino-3,6-dioxaoctanoic acid-Asp-BBN(7-14) (peptide)
# peptide: DQWAVGHLM
# modifications: N-terminus: N,N-dimethylglycine-Ser-Cys(Acm)-Gly-8-amino-3,6-dioxaoctanoic acid; C-terminal amide
# notes: also called L10
# B14: N,N-dimethylglycine-Ser-Cys(Acm)-Gly-2,3-diaminopropionic acid-8-amino-3,6-dioxaoctanoic acid-Gly-BBN(7-14) (peptide)
# peptide: {Me2Gly-Ser-Cys(Acm)}-G[Dap][AEEA]GQWAVGHLM-NH2
# notes: same M-N-O-P-G as printed for L61, other MS; also called L26
# Tests used:
# [1] = target: T1, gastrin releasing peptide receptor (GRP-R), human (human, UniProt P30550 1-384); test: 125I-BBN competition, PC3 cells
# T1 construct: whole, on cells; also called GRP receptor; GRP-preferring receptor
# Method: (§1) All compounds tested were dissolved in binding buffer and appropriate dilutions were also done in binding buffer. PC3 cells for assay were seeded at a concentration of 2.0×10⁴/well either in 96-well black/clear collagen I cellware plates (Beckton Dickinson Biocoat). Plates were used for binding studies on day 2 post-plating. The plates were checked for confluency (>90% confluent) prior to assay. […] The studies were conducted with an assay volume of 75 μL per well. Triplicate wells were used for each data point. After the addition of the appropriate solutions, plates were incubated for 1 hour at 4° C. Incubation was ended by the addition of 200 μL of ice-cold incubation buffer. Plates were washed 5 times and blotted dry. Radioactivity was detected using either a LKB CompuGamma counter or a microplate scintillation counter.
# [2] = target: T1, gastrin releasing peptide receptor …; test: 125I-BBN competition, PC3 cells; remark: listed apart in the source
# Method: as §1
# [3] = target: T1, gastrin releasing peptide receptor …; test: 125I-BBN competition, PC3 cells; remark: listed apart in the source
# [4] = target: T2, neuromedin-B preferring receptor (NMB-R) of C6 rodent glioblastoma cells (rodent, UniProt P24053 1-390, limits assumed); test: 125I-NMB competition, C6 cells
# T2 construct: whole, on cells; also called C6/NMB-R
# T2 sequence (looked up): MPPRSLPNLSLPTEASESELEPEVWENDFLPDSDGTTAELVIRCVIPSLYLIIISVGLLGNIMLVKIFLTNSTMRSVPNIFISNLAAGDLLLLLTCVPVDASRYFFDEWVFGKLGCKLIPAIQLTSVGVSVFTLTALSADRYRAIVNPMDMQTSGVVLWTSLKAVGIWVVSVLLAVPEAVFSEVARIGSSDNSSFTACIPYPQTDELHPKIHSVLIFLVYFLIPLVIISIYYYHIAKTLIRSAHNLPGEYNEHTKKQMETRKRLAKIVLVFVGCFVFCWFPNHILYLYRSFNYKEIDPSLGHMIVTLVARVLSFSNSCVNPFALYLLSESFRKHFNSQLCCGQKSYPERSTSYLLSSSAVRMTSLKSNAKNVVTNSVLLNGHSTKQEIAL
# Method: The binding parameters obtained from the studies were analyzed using a one-site competition non-linear regression analysis with GraphPad Prism.
# [5] = target: T3, bombesin receptor subtype 3 (BB3-R), human (human, UniProt P32247 1-399); test: receptor autoradiography on human tumour sections
# T3 construct: whole, on cells; tissue sections, receptor autoradiography
# T3 sequence (looked up): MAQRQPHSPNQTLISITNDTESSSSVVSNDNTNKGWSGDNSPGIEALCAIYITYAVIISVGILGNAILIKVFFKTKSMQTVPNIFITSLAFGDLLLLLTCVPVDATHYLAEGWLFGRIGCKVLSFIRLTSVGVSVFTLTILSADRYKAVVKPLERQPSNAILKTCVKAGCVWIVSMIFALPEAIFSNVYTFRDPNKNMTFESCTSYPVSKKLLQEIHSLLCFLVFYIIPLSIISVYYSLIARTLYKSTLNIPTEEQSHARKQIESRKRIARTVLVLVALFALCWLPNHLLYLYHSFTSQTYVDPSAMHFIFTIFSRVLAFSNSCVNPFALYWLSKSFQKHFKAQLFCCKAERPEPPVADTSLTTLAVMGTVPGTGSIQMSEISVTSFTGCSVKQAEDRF
# From the text: Human ileal carcinoid tissue was used as a source for NMB-R, human prostate carcinoma for GRP-R and human bronchial carcinoid for BB3-R subtype receptors.
# [6] = target: T2, neuromedin-B preferring receptor …; test: 125I-NMB competition, C6 cells; remark: listed apart in the source
# [7] = target: T1, gastrin releasing peptide receptor …; test: displacement of 125I-universal ligand, human tumour sections
# [8] = target: T1, gastrin releasing peptide receptor …; test: 125I-BBN competition, PC3 cells; remark: listed apart in the source
# T1 sequence (P30550 whole entry): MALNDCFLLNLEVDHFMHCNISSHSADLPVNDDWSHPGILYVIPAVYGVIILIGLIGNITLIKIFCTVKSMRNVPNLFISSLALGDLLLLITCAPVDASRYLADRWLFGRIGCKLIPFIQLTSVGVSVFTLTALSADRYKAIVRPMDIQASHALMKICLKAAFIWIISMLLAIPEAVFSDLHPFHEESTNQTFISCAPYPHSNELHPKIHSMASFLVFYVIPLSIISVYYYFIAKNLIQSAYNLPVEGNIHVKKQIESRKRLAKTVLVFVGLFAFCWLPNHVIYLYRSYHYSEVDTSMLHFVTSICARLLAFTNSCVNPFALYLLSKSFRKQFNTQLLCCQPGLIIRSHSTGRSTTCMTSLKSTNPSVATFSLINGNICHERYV
binder,measurement,setting,value
B1,IC50,[1],> 500 nM
same,IC50,[2],> 500 nM
B2,IC50,[3],10 nM
B3,IC50,[4],60 nM
"[Me2Gly]SC(Acm)GSKQWAVGHLM-NH2 [N,N-dimethylglycine-Ser-Cys(Acm)-Gly-SK-QWAVGHLM-NH2]",IC50,[3],2 nM
B4,IC50,[4],2 nM
B5,binding result,[5],no binding
WAVGHLM-NH2 (also called BBN8-14) [WAVGHLM-NH2],IC50,[4],> 800 nM
same,IC50,[6],> 800 nM
B6,IC50,[7],0.8 nM
{DOTA}-G[4Abz]LWATGHFM-NH2 (also called L227) [DO3A-monoamide-G-Abz4-LWATGHFM-NH2],IC50,[4],0.8 nM
same,IC50,[6],0.07 nM
B7,IC50,[8],50 nM
B8,IC50,[8],6 nM
B9,IC50,[8],4 nM
B10,IC50,[8],> 50 nM
B11,IC50,[8],> 50 nM
B12,IC50,[8],> 50 nM
B13,IC50,[8],> 50 nM
B14,IC50,[8],30 nM

# Source: US20090175786A1 (published 2009)
